Assay results published in paper PMC7647112, “The SiaABC threonine phosphorylation pathway controls biofilm formation in response to carbon availability in Pseudomonas aeruginosa” (PLoS ONE, 2020).

Key:
[1] = target: SiaC (Pseudomonas aeruginosa); experiment: SEC; SiaB and SiaC mixed in equal molar ratio, incubated at room temperature for 1 h, without ATP and MgCl2; Hiload 16/600 Superdex 200; peaks analysed by SDS-PAGE
[2] = target: C-terminal part of SiaA including the PP2C-like phosphatase domain (SiaA-PP2C, amino acids 386-663) (Pseudomonas aeruginosa); experiment: SEC; size-exclusion chromatography of SiaA-PP2C alone; elution compared with markers
[3] = target: T1, SiaA-PP2C (Pseudomonas aeruginosa, UniProt Q9I6W0); experiment: pNPP phosphatase assay, absorbance […] nm; format: biochemical; conditions: read-out: % activity remaining at 0.1 mM fumonisin B1
T1 construct: gene PA0172; C-terminal PP2C phosphatase domain, residues 386-663, His-tagged (pNIC vectors), E. coli BL21(DE3) Rosetta; ~33 kDa monomer, homodimer (66 kDa by SEC)

[4] = target: T1, SiaA-PP2C; experiment: pNPP phosphatase assay, absorbance […] nm; format: biochemical; conditions: 20 mM MgCl2, 20 mM Tris-HCl pH 7.5, 150 mM NaCl, 37°C; 0.5-5 mM pNPP

Q: SiaB (enzyme) was tested. Which stoichiometry N (SiaB:SiaC (2:2 complex)) [1] did it give?
A: The stoichiometry N (SiaB:SiaC (2:2 complex)) was 1.

Q: Which stoichiometry N [2] does the source give for “C-terminal part of SiaA including the PP2C-like phosphatase domain (SiaA-PP2C, amino acids 386-663) (domain or fragment)” here?
A: Its stoichiometry N is 2.

Q: How did the remaining activity at 100 µM [3] turn out when `CCCC[C@@H](C)[C@@H](OC(=O)C[C@@H](CC(=O)O)C(=O)O)[C@H](C[C@@H](C)C[C@H](O)CCCC[C@@H](O)C[C@H](O)[C@H](C)N)OC(=O)C[C@@H](CC(=O)O)C(=O)O` [fumonisin B1] was run?
A: The remaining activity at 100 µM was 35.5%.

Q: Which “pNPP phosphatase assay, absorbance 405 nm” value [4] does the source give for `O=[N+]([O-])c1ccc(OP(=O)(O)O)cc1` [para-nitrophenyl phosphate] here?
A: The value was “phosphatase activity of SiaA-PP2C was assessed using para-nitrophenyl phosphate (pNPP)”.
